This is an account of results in paper PMC5849602.

Numbering of substitutions follows the chain as printed. In names and notes the source's numbering stands. The star is where a group is joined. AFC = O=c1cc(C(F)(F)F)c2ccc(N*)cc2o1

Assay [1] addresses T1, Casp6-WT lacking its pro-domain (∆Casp6-WT) (human) (UniProt P55212).
T1 sequence: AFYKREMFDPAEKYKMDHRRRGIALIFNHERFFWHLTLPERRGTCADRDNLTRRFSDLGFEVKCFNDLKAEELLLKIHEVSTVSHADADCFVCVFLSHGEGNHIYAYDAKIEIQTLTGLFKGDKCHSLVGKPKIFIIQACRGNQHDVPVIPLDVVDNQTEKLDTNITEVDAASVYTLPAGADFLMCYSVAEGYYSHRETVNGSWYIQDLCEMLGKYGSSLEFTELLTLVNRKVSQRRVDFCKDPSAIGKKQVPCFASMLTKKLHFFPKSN

The target of assay [2] is co-expressed Casp6-R65W large and small subunits (human). The experiment in a line: thermal shift assay (SYPRO Orange); 10 μM Casp6 with or without 50 μM Ac-VEID-CHO, 20 mM Tris pH 8.5, 5 mM DTT, 5x SYPRO Orange, 25 to 95 °C; ΔTm = Tm with minus Tm without Ac-VEID-CHO.
Substrate in assay [3]: ΔN D179 CT version of Casp6-WT (human) (UniProt P55212)
The assay is described as above.

Assay [4] concerns the target T2, recombinant Casp6-R65W (from full-length Casp6-His) (human) (UniProt P55212).
T2 sequence: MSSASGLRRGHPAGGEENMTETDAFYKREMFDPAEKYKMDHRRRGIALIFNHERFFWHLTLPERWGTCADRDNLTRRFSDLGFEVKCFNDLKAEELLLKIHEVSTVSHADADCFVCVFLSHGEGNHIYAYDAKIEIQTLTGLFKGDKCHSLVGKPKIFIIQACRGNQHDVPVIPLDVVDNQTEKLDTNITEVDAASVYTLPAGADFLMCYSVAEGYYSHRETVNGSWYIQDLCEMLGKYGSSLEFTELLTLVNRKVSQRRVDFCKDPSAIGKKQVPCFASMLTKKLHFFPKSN

The target of assay [5] is T3, recombinant Casp6-WT (from full-length human Casp6-WT-6xHis-tag-C-terminus) (human) (UniProt P55212).
T3 sequence: T2 sequence with W65R

B1: recombinant proCasp6-G66R (from full-length Casp6-His) (enzyme)
chain: T2 sequence with W65R, G66R
For B1, the reduction of the VEIDase activity (40 µM Ac-VEID-AFC) of Casp3-processed ∆Casp6-WT (0.02 mg/ml) on addition of proCasp6-G66R (0.02-0.06 mg/ml, ratios 1:1 to 3:1), not dose-dependent in assay [1] was 30%.
As to Ac-VEID-aldehyde [Ac-VEID-CHO], the results for the increase of melting temperature with Ac-VEID-CHO (ΔTm) in assay [2] and in assay [3] were 4.6 °C and 7 °C, respectively.

B2: Ac-Val-Glu-Ile-Asp-7-Amino-4-trifluoromethylcoumarin (peptide)
peptide: Ac-VEID-{AFC}
SMILES: CC[C@H](C)[C@H](NC(=O)[C@H](CCC(=O)O)NC(=O)[C@@H](NC(C)=O)C(C)C)C(=O)N[C@@H](CC(=O)O)C(=O)Nc1ccc2c(C(F)(F)F)cc(=O)oc2c1
Take B2: the KM of Ac-VEID-AFC cleavage (Michaelis-Menten fit; 20 nM Casp6, 1-300 µM Ac-VEID-AFC) in assay [4] stood at 102 µM; in assay [5], 39.1 µM.
